What was measured:
[1] = target: human recombinant FcgammaR receptor CD32aH (human) (UniProt P12318); experiment: SPR (ProteOn), Mab captured via anti-human Fc, FcgammaR analyte
[2] = target: human recombinant FcgammaR receptor CD32bF (human) (UniProt P31994); experiment: as above

Chain of CAT-2200 wild-type lambda Mab (antibody) (heavy): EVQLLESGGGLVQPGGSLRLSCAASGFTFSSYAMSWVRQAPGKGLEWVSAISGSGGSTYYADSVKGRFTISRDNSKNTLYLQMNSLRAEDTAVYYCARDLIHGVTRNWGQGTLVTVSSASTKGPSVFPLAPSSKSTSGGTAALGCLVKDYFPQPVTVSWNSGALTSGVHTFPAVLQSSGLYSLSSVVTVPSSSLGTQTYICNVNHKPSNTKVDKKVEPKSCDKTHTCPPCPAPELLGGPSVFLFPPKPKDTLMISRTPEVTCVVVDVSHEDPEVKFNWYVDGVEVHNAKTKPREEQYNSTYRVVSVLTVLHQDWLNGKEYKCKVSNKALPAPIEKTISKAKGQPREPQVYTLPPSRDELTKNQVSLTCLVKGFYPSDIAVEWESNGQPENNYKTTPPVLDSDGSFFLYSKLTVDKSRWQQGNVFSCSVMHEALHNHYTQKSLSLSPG
Chain of CAT-2200 wild-type lambda Mab (antibody) (light): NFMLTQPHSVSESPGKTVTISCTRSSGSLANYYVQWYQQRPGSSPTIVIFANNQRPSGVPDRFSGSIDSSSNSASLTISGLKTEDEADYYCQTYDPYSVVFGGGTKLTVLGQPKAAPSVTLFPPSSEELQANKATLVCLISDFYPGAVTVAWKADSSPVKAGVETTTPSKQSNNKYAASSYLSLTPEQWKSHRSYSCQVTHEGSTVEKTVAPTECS
Chain of human recombinant FcgammaR receptor CD32aH (human) (P12318 34-217): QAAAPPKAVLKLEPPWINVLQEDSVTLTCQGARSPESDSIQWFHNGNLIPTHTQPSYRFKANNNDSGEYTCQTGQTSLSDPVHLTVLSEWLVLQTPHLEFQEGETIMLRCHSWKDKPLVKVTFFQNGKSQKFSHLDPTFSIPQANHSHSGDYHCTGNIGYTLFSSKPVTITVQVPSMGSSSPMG

CAT-2200 wild-type lambda Mab (antibody)
Kd [1]: 700 nM | Kd [2]: 2900 nM

— patent publication US20200308270A1
